Sequences and labels used below:
T1: human IL-33 (R&D Systems, #3625-IL-010/CF) (human, UniProt O95760 112-270)
T1 sequence (looked up): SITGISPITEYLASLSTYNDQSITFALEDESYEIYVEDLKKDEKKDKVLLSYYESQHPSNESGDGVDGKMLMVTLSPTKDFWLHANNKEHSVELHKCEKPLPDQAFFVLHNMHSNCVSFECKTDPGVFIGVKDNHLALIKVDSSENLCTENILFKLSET

T2: cynomolgus monkey IL-33 expressed with a C-terminal hexahistidine tag (cynomolgus monkey)
T2 chain: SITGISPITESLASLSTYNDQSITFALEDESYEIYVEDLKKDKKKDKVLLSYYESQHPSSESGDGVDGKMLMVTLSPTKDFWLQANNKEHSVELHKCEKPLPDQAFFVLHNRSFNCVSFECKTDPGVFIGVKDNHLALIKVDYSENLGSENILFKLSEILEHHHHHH

B1: H4H9660P (antibody, human IgG4, V domains shown)
VH: EVQLVESGGGLVQPGGSLRLSCAASGITLSSYGMSWVRQAPGKGLEWVASIFGSGGGPYYADSVKGRFTMSRDNSKNTLYLQMNSLRAEDTAVYYCAKDRYSGSYYGGFDYWGRGTLVTVSS
VL: DIQMTQSPSSVSASVGDRVTITCRASQGITSWLAWYQQKPGKAPTLLIYAASSLQTGVPSRFSGSGSGTDFTLTISSLQPEHFATYYCQQANSFPPTFGGGTKVEIK
notes: Human IgG4 Fc (H4H)
B2: H4H9663P (antibody, human IgG4, V domains shown)
VH: QVQLVQSGAEVKKPGASVKVSCKASGYTFTGHYMYWMRQAPGQGLEWMGWINPNSGGTNYAQKFQDRVTMTRDTSISTAYMELSRLRSDDTAVYYCARGRYGSSWYGGFEYWGQGTLVTVSS
VL: B1 VL with T45N, S52A, T56S, H82D, A84T, N92Y, F94L, P96L
notes: Human IgG4 Fc (H4H)
B3: H4H9667P (antibody, human IgG4, V domains shown)
VH: EVQLVESGGGLVQPGGSLRLSCAASGFTFSTYSMHWVRQAPGKGLEYVSTINNNGDTTYYADSVKGRFTISRDNSKNTLYLQLGSLRPEDMAVYYCARQTYTSSWYGGFDSWGQGTLVTVSS
VL: B1 VL with T45K, S53N, T56S, S76T, H82D, F94L, P96F, G100P, E105D
notes: Human IgG4 Fc (H4H)
B4: H4H9664P (antibody, human IgG4, V domains shown)
VH: QVQLVESGGGVVQPGRSLRLSCAASGFTFSSYGLHWVRQSPGKGLEWVALISYDGSNKYYADSVKGRFTISRDNSKNTLYLQMNSLRPEDTAGYFCAKSLYTTSWYGGFDYWGQGTLVTVSS
VL: B1 VL with T30R, T45N, T56S, H82D, G100P, E105D
notes: Human IgG4 Fc (H4H)
B5: H4H9665P (antibody, human IgG4, V domains shown)
VH: EVQLVESGGGLVQPGGSLRLSCAASGFTFSNYAMTWVRQAPGKGLEWVSTISGSGDNTYYADSVQGRFTISRGHSKNTLYLQMNSLRAEDTAVYYCAKPTYSRSWYGAFDFWGQGTMVTVSS
VL: B1 VL with T30S, T45Q, S53R, T56S, S63W, H82D, S93N, P96F, G100P, E105D
notes: Human IgG4 Fc (H4H)
B6: H4H9662P (antibody, V domains shown)
VH: EVQLVESGGGLVQPGGSLRLSCAASGFTFSSYALTWVRQAPGKGLEWVSFISGSGGRPFYADSVKGRFTISRDNSKNMLYLQMNSLRAEDTAIYYCAKSLYTTSWYGGFDSWGQGTLVTVSS
VL: B1 VL with I29V, T30V, T45K, T56S, H82D, A91S, P96F, F98L, G100P, E105D
notes: Human IgG4 Fc (H4H)
B7: H4H9640P (antibody, human IgG4, V domains shown)
VH: QVQLQESGPGLVKPSETLSLTCTVSGGSISSYYWSWIRQPPGKGLELIGYIYYSGSTNYNPSLKSRVTISVDTSKNHFSLKLSSVTAADTAVYYCARSQYTSSWYGSFDIWGQGTMVTVSS
VL: DIQMTQSPSSVSASVGDRVTITCRASQGISTWLAWFQQKPGKAPKLLIYAASTLQGGVPSRFSGSGSGPEFTLTISSLQPEDFATYYCQQANSFPWTFGQGTKVEIK
notes: Human IgG4 Fc (H4H)
B8: H4H9659P (antibody, human IgG4, V domains shown)
VH: QVQLVQSGAEVKKPGASVKVSCKASGYTFNSYGISWVRQAPGQGLEWMGWISSHNGNSHYVQKFQGRVSMTTDTSTSTAYMELRSLRSDDTAVYYCARHSYTTSWYGGFDYWGQGTLVTVSS
VL: B1 VL with I29F, T30S, T45Q, T56S, T69S, H82D, P96L
notes: Human IgG4 Fc (H4H)

Substitutions are numbered along the chain they refer to. Numbers in names are those of the source.

In the first experiment the target is T1, human IL-33 (R&D Systems, …). The experiment in a line: cell-based or functional assay.
For B1, the “IC50, inhibition of 10 pM hIL-33 activation of HEK293/hST2/NFkB-luciferase cells” value was 3.5e-11 M.
On the same count and under the same terms, under B2 stands 1.3e-10 M; under B3, 7.1e-11 M.
As to B4, the “IC50, inhibition of 10 pM hIL-33 activation of HEK293/hST2/NFkB-luciferase cells” value came out at 5e-11 M.
As to B5, the “IC50, inhibition of 10 pM hIL-33 activation of HEK293/hST2/NFkB-luciferase cells” value turned out to be 9e-11 M.
The same measure, in the same setting: in the case of B6 it was 2e-11 M; in that of B7, 3e-11 M.
Still for that read-out and setting: in the case of B8 it was 4.7e-11 M.

Another experiment has as its target T2, cynomolgus monkey IL-33 expressed with …. The experiment in a line: cell-based or functional assay.
Take B1: the “IC50, inhibition of 5 pM MfIL-33-6His activation of HEK293/hST2/NFkB-luciferase cells” value amounted to 1.9e-08 M.
For B2, the “IC50, inhibition of 5 pM MfIL-33-6His activation of HEK293/hST2/NFkB-luciferase cells” value was 2.7e-09 M.
Same read-out and setting: in the case of B3 it was 1.2e-08 M; in that of B4, 2.6e-08 M.
The same measure, in the same setting: in the case of B5 it was 6.6e-10 M.
Same read-out and setting: under B6 stands 1.5e-09 M.
As to B7, the “IC50, inhibition of 5 pM MfIL-33-6His activation of HEK293/hST2/NFkB-luciferase cells” value amounted to 1.4e-08 M.
In the case of B8, the “IC50, inhibition of 5 pM MfIL-33-6His activation of HEK293/hST2/NFkB-luciferase cells” value was found to be 3.3e-09 M.

The target is the same in the next experiment. Briefly: BLI; captured MfIL-33-6His, mAb-1 step with Buffer. Here is the method: (§1) Binding competition between a panel of different anti-IL-33 monoclonal antibodies was determined using a real time, label-free bio-layer interferometry assay on an Octet® HTX biosensor (ForteBio, A Division of Pall Life Sciences). The experiment was performed at 25° C. using a buffer of 0.01M HEPES pH7.4, 0.15M NaCl, 3 mM EDTA, 0.05% v/v Surfactant Tween-20, and 0.1 mg/ml BSA (HBS-ET kinetics buffer) with the plate shaking at a speed of 1000 rpm. […] The antigen-captured biosensors were then saturated with a first anti-IL-33 monoclonal antibody (subsequently referred to as mAb-1) by immersion into wells containing 50 μg/mL solution of mAb-1 for 5 minutes. The biosensors were then dipped into wells containing a 50 μg/mL solution of a second anti-IL-33 monoclonal antibody (subsequently referred to as mAb-2) for 4 minutes. The biosensors were washed in HBS-ET kinetics buffer in between every step of the experiment. The real-time binding response was monitored during the experiment, and the maximum binding response for each binding step was recorded. The response of mAb-2 binding to MfIL-33-6His pre-complexed with mAb-1 was measured, and competitive/non-competitive behavior of different anti-IL-33 monoclonal antibodies with respect to each other was determined.
(In general: In BLI a coated tip is dipped into the sample, and binding shifts an interference pattern.)
For the molecule B1, the “mAb-2 Binding to the Pre-complex of mAb-1 & MfIL-33-6xHis” value (shortened to “mAb-2 Binding to the Pre-complex”) amounted to 0.3 nm.
Same read-out and setting: under B2 stands 0.31 nm; under B3, 0.3 nm.
With B4, the “mAb-2 Binding to the Pre-complex” value is 0.31 nm.
On the same count and under the same terms, under B5 stands 0.33 nm; under B6, 0.26 nm.
Regarding B7, the “mAb-2 Binding to the Pre-complex” value was 0.33 nm.
In the case of B8, the “mAb-2 Binding to the Pre-complex” value came out at 0.31 nm.

The next experiment has the same target. The experiment in a line: BLI; captured MfIL-33-6His, mAb-1 step with Isotype control. The procedure:
as §1
In the case of B1, the “mAb-2 Binding to the Pre-complex” value came out at 0.26 nm.
For the molecule B2, the “mAb-2 Binding to the Pre-complex” value is 0.23 nm.
Consider B3, for which the “mAb-2 Binding to the Pre-complex” value is 0.26 nm.
B4: the “mAb-2 Binding to the Pre-complex” value stood at 0.27 nm.
The same measure, in the same setting: under B5 stands 0.3 nm; under B6, 0.22 nm.
Consider B7, for which the “mAb-2 Binding to the Pre-complex” value was 0.28 nm.
Regarding B8, the “mAb-2 Binding to the Pre-complex” value was 0.25 nm.

Another experiment deals with T1, human IL-33 (R&D Systems, …). The experiment in a line: SPR 37C, pH6.0 chase, mAb captured. Here is the method:
(§2) Equilibrium dissociation constants (KD values) for IL-33 binding to purified anti-IL-33 monoclonal antibodies were determined using a real-time surface plasmon resonance biosensor using a Biacore 4000 instrument. The Biacore sensor surface was first derivatized by amine coupling with either a polyclonal rabbit anti-mouse antibody (GE, # BR-1008-38) or with a monoclonal mouse anti-human Fc antibody (GE, # BR-1008-39) to capture anti-IL-33 monoclonal antibodies expressed with mouse or with human IgG4 constant regions, respectively. All Biacore binding studies were performed in 0.01M ADA pH 7.4, 0.15M NaCl, 3 mM EDTA, and 0.05% v/v Surfactant Tween-20 (ABS-ET running buffer). […] Association of either hIL-33 or MfIL-33-6His to the captured monoclonal antibody was monitored for 4 minutes and their dissociation in ABS-ET running buffer was monitored for 10 minutes. The effect of reduced pH on the binding of each anti-IL-33 antibody to either hIL-33 or MfIL-33-6His was studied using an in-line pH chase assay format in 0.01M ADA pH 6.0, 0.15M NaCl, 3 mM EDTA, and 0.05% v/v Surfactant Tween-20 (ABS-ET pH6 buffer). To achieve this, association of either hIL-33 or MfIL-33-6His to the captured monoclonal antibody was monitored for 4 minutes in ABS-ET running buffer. Following a 30 second dissociation of either hIL-33 or MfIL-33-6His in ABS-ET running buffer, ABS-ET pH6 buffer was injected for 3 minutes, and the analyte dissociation under the low-pH conditions was measured. All the binding kinetic experiments were performed at both 25° C. and 37° C. Kinetic association (kₐ) and dissociation (kd) constants were determined by fitting the real-time sensorgrams to a 1:1 binding model using Scrubber 2.0c curve fitting software. Binding dissociation equilibrium constants (KD) and dissociative half-lives (t½) were calculated from the kinetic rate constants as: […]
As for B1, the koff (commonly the first-order rate constant of dissociation) stood at 0.00323 s⁻¹; the t½ (as a rule, how long it takes for the measured level to halve) came to 4 min; the “t½ Ratio (pH 7.4/pH 6.0)” value is 6.8.
With B2, the koff amounted to 0.00462 s⁻¹, the t½ is 3 min and the “t½ Ratio (pH 7.4/pH 6.0)” value turned out to be 3.7.
Regarding B3, the koff turned out to be 0.00244 s⁻¹, the t½ came to 5 min and the “t½ Ratio (pH 7.4/pH 6.0)” value came out at 4.
The like results for B4 were, in that order, 0.00279 s⁻¹, 4 min and 3.9.
Take B5: the koff was found to be 0.00965 s⁻¹, the t½ worked out at 1 min and the “t½ Ratio (pH 7.4/pH 6.0)” value was determined as 6.7.
The matching figures for B6: 0.00383 s⁻¹, 3 min and 6.2.
Consider B7, for which the koff is 0.00265 s⁻¹, the t½ came out at 4 min and the “t½ Ratio (pH 7.4/pH 6.0)” value is 4.6.
As for B8, the koff turned out to be 0.00299 s⁻¹, the t½ is 4 min and the “t½ Ratio (pH 7.4/pH 6.0)” value was 7.4.

A further experiment has as its target T2, cynomolgus monkey IL-33 expressed with …. Briefly: SPR 37C, pH6.0 chase, mAb captured. The procedure:
as §2
B1: the koff was found to be 0.00463 s⁻¹, the t½ was determined as 2.5 min and the “t½ Ratio (pH 7.4/pH 6.0)” value stood at 1.
Take B2: the koff is 0.00354 s⁻¹, the t½ turned out to be 3.3 min and the “t½ Ratio (pH 7.4/pH 6.0)” value came to 1.
The like results for B3 were, in that order, 0.00268 s⁻¹, 4 min and 0.8.
As for B4, the koff amounted to 0.00193 s⁻¹, the t½ was determined as 6 min and the “t½ Ratio (pH 7.4/pH 6.0)” value came to 0.3.
The matching figures for B5: 0.004 s⁻¹, 2.9 min and 1.9.
In the case of B6, the koff stood at 0.00168 s⁻¹, the t½ was determined as 7 min and the “t½ Ratio (pH 7.4/pH 6.0)” value was determined as 1.1.
B7: the koff was determined as 0.00226 s⁻¹, the t½ stood at 5 min and the “t½ Ratio (pH 7.4/pH 6.0)” value was 0.5.
Regarding B8, the koff was determined as 0.00102 s⁻¹, the t½ was 11 min and the “t½ Ratio (pH 7.4/pH 6.0)” value was 0.5.

These data come from patent US20160362487A1 (Regeneron, published 2016).
